B1: 4I22 (antibody, V domains shown)
VH: QVQLVESGGGVVQPGRSLRLSCVASGFTFSSYAMHWVRQAPGKGLEWVAVISYDGDNKFYADSVKGRFRISRDTSKNTLYLEMNSLRAADTAIYYCAREELVGLMPPYYNYGLDVWGQGTTVTVSS
VL: QSVLTQPPSVSAAPGQKVTISCSGSNSNIGNNYVSWYQQLPGRAPKLLIYDNDHRPSGIPDRFSGSKSGTSATLVITGLQTGDEADYYCETWDTSLSAAVVFGGGTKLTVL
B2: 10F7 (antibody, V domains shown)
VH: EVQLVESGGGLVQPGRSLRLSCTASGFTFGDYAMSWFRQAPGKGLEWVGFIRSKAYGGTTEYAASVKGRFTISRDDSKSIAYLQMNSLKTEDTAVYYCTRASSLLWLLNPQPNFDYWGQGTLVTVSS
VL: SYVLTQPPSVSVAPGQTARITCGGNNIGSNNVHWYQQKPGQAPVLVVYDDSDRPSGIPERFSGSNSGNTATLTISRVEAGDEADYYCQVWDSSSDHPVFGGGTKLTVL
B3: 10P3 (antibody, V domains shown)
VH: EVQLVESGGGLVRPGGSLRLSCAASGFTFHNYRMNWVRQAPGKGLEWVANIKQDGSEKSYVDSVRGRFTTSRDNSKNSLYLQINSLRAEDTAVYYCARGEGYTYGVVYSYSAMDVWGQGTTVIVSS
VL: SYELTQPPSVSVSPGQTARITCSGNVLPNQYASWYQQKPGQAPVLVIYKDTERPSGIPGRFSGSSSGTTVTLTISGVQAEDEADYYCQSADSSGADYVFGTGTKVTVL
B4: 8L13 (antibody, V domains shown)
VH: QVQLLESGGGVVQPGRSLRLSCAASGFTFSNYGMHWVRQAPGKGLEWVAVIWNDGSKKYYAESVKGRFTISRDNSKNTVYLQMNSLRAEDTAVYYCARDEGVQMVFAMPDYGMDVWGQGTTVTVSS
VL: SYELTQPPSVSVSPGQTASITCSGDKLGDKFACWYQQRPGQSPILVIYQDSKRPSGIPERFSGSNSGNTATLTIRGTQAMDEADYYCQAWDSSTAHYVFGTGTKVTVL
B5: 4N10 (antibody, V domains shown)
VH: QVQLVQSGAEVKKPGSSVRVSCKASGGTFSSYVIIWVRQAPGQGLEWMGGVIPIFDTVNYAQKFQGRVTITADESTSTAYMELSSLKSEDTAVYYCARGILAYCGGDCYNTPYGMDVWGQGTTVTVSS
VL: DIQMTQSPSILSASVGDRVTITCRASQSISSWLAWYQQKPGKAPKLLIYKASSLEIGVPSRISGSGSGTEFTLTISSLQPDDFATYYCQQYNSSWTFGQGTKVEIK
B6: 7B13 (antibody, V domains shown)
VH: QVQLVESGGGVVQPGGSLRLSCAASGFSFSNYGMHWVRQAPGKGLEWVALIPSDGNYQYYTDSVKGRFTVSRDNSRNTLYLQMKSLRAEDTARYHCAHLGGGLFDFWGQGTLVTVSS
VL: QSALNQPRSVSGSPGQSVSISCTGSSSDVGGYEFVSWYQHHPGKAPKLIIYDVDKRPSGVPDRFSGSRSGDTASLTISGLQAEDEADYYCYSSADTWVFGGGTKLTVL
B7: 7I13 (antibody, V domains shown)
VH: QVQLVESGGGVVQPGRSLRLSCAASGFTFSNYGMHWVRQGPGKGLEWVAVISYDASSKYYTDSVQGRFTISRDNSKNTLFLQMNSLRGEDTAVYYCAKALRYLDWFLSDPFDYWGQGTLVTVSS
VL: EIVLTQSPGTLSLSPGERATLSCRASQSVSSDFLAWYQQKPGQAPRLLIYGASSRATGIPDRFSGSGSGTDFTLTISRLEPEDFAVYYCQQYAASPPFGQGTRLEIK
B8: 8C15 (antibody, V domains shown)
VH: QVQLQESGPGLVKPSETLSLTCTVSGGSIRSYYWSWIRQPPGKGLEWIGHIYYSGNTNYSPSLQSRVTISLDTPKNQFSLRLSSVTAADTAVYYCARHDVIVVRGVFDVWGQGTVVTVSS
VL: QSALTQPASVSGSPGQSITISCTGTSSDIGTYNLVSWYQQHPGKAPKVLIYDGSKRPSGVSSRFSASKSGNTASLTISGLQAEDETDYYCCSYAGTSDFFVVFGGGTKLTVL
B9: 8J16 (antibody, V domains shown)
VH: QVQLQESGPGLVKPSETLSLTCSVSGGFTSSYYWSWIRQAPGKGLEWIGYVYYGESTDYNPSLKSRATISIDTSKNQFSLKLSSVTAADTAVYYCAREVDKRGFDYWGQGALVTVSS
VL: EIVLTQSPGTLSLSPGERATLSCRASQSVSGGYLAWYQQEPGQAPRLVIYGASSRATGIPDRFSASGSGTDFTLTITRLEPEDFAVYYCQQYGRTPLTFGGGTKVEIK
B10: 2C12 (antibody, V domains shown)
VH: QITLRESGPTLVKPTQTLTLTCTFSGFSLNTNGVGVGWIRQPPGKALEWLALIYWNGNEGYSPSLKSRLTITKDTSKNQVVLTMTNMDPVDTATYYCVHWPQGLTTVTRLAFDIWGQGTMVTVSS
VL: QSALTQPRSVSGSPGQSVTISCTGTTSDVGRYNFVSWYQQHPGKAPKLLMYDVSQRPSGVPSRFSGSKSGNTASLTISGLQAEDEAVFYCCSYAGGNFFSYVFGTGTKVTVL
B11: 9I6 (antibody, V domains shown)
VH: EVQLVQSGAEVKKPGESLKISCRESGDTFPAYWIAWVRQMPGKGLEWMGIIYPIDSETTYSPSFQGQVTISADKSINTAYLQWSSLKASDSAIYYCARGTSTGLREAFHIWGQGTMVTVSS
VL: DVVMTQSPLSLAVTLGQPAYISCRSSQSLGYSDGNTYLNWFQQRPGQSPRRLIYEVSNRDSGVPDRFSGSGSGTDFTLKISRVEAEDVGTYYCMQGTHWPPMCSFGQGTKLEIK
B12: 13H11 (antibody, V domains shown)
VH: QVQLVQSGAEVKKPGASVKVSCKASGYTFTNYYIHWVRQAPGQGLEWMGIIHPSSGGTSYAQKFQGRVTMTRDTSTSTVSMDLSSLRSEDTAVYYCGRAFRILGLSDVFVNDWGQGTVVTVSS
VL: DIQMTQSPSSLSASVGDRVTITCRASQGINNYLAWYQQKPGKVPKLLIYAASTLQSGVPSRFSGSGSGTAFTLTILSLQPEDVATYYCQKYNSAPFTFGPGTKVDIK
B13: 11B12 (antibody, V domains shown)
VH: QMQLVQSGPQVKKPGTSVKVSCKASGFTFTSSAMQWVRQARGQRPEWIGWIVLGSGNTNYAQKFQERVTLTRDMSTATAYMELSSLRSEDTAVYYCAADRGRGGYNVYTYWGQGTLVAVSS
VL: EIVMTQSPGTLSLSPGERATLSCRASQTISNTYVAWYQQKPGQAPRLLIYGASSRATGIPDRFSGSGSGTDFTLTIRRLEPEDFAVYYCQQNGQSPWTFGQGTNVEIK
B14: 3G16 (antibody, V domains shown)
VH: QSALTQPASVSGSPGESITISCTGTISDVGAYNSVSWYQQHSGTAPELIIYDVTNRPAGVSSRFSGSKSGNTASLTISWLQSEDEAEYYCSSYTTSDTYVFGSGTQVTVL
V domain: RAQLVQSAAEMKNPGASVKVSCEASGYTFTGYYVHWMRQAPGQGLEWMGWINPMTGATKSPQKFQGRVTMTRDTSTTATHIELTRLRSDDSAVFFCARGGPTSTRITGKRHFDLWGRGTLITVAS

Target: T1, hCMV UL130 + UL131A (co-expressed in HEK293T cells) (human cytomegalovirus, UniProt P16772 1-214; F5HET4 19-129)
Assay: cell-based or functional assay

**Q.** Which results are given for B1?
**A.** 50% Neutralization ARPE: < 0.01 µg/mL; 50% Neutralization MRC-9: > 2 µg/mL

**Q.** Which results are given for B2?
**A.** 50% Neutralization ARPE: < 0.01 µg/mL; 50% Neutralization MRC-9: ≤ 2 µg/mL

**Q.** Which “50% Neutralization ARPE” value does the source give for B3 here?
**A.** < 0.001 µg/mL

**Q.** And the “50% Neutralization MRC-9” value?
**A.** > 2 µg/mL

**Q.** With B4 as the binder, how does the “50% Neutralization ARPE” value read?
**A.** < 0.01 µg/mL

**Q.** And the “50% Neutralization MRC-9” value?
**A.** > 2 µg/mL

**Q.** For B5, which “50% Neutralization ARPE” value is on record?
**A.** < 0.001 µg/mL

**Q.** What about the “50% Neutralization MRC-9” value of the same binder?
**A.** ≤ 2 µg/mL

Target: T2, hCMV UL128 + UL130 + UL131A (co-expressed in HEK293T cells) (human cytomegalovirus, UniProt P16837 28-171; P16772 1-214; F5HET4 19-129)
Assay: cell-based or functional assay

T2 sequence (P16837 28-171 limits assumed, one chain of several): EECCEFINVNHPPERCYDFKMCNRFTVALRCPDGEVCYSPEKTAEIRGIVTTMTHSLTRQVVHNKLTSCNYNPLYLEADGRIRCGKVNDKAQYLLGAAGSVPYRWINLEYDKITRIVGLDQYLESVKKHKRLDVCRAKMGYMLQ

**Q.** For B6, which “50% Neutralization ARPE” value is on record?
**A.** < 0.001 µg/mL

**Q.** And the “50% Neutralization MRC-9” value?
**A.** > 2 µg/mL

**Q.** B7 was tested. Which “50% Neutralization ARPE” value did it give?
**A.** < 0.01 µg/mL

**Q.** What about the “50% Neutralization MRC-9” value of the same binder?
**A.** > 2 µg/mL

**Q.** How did the “50% Neutralization ARPE” value turn out when B8 was run?
**A.** < 0.001 µg/mL

**Q.** And the “50% Neutralization MRC-9” value?
**A.** > 2 µg/mL

**Q.** How did the “50% Neutralization ARPE” value turn out when B9 was run?
**A.** < 0.001 µg/mL

**Q.** What about the “50% Neutralization MRC-9” value of the same binder?
**A.** > 2 µg/mL

**Q.** Which “50% Neutralization ARPE” value does the source give for B10 here?
**A.** < 0.01 µg/mL

**Q.** And the “50% Neutralization MRC-9” value?
**A.** ≤ 2 µg/mL

**Q.** Which “50% Neutralization ARPE” value does the source give for B11 here?
**A.** < 0.001 µg/mL

**Q.** And the “50% Neutralization MRC-9” value?
**A.** > 2 µg/mL

Target: T3, hCMV gH (expressed in HEK293T cells) (human cytomegalovirus, UniProt P12824 24-743)
Assay: cell-based or functional assay

**Q.** Which “50% Neutralization ARPE” value does the source give for B12 here?
**A.** < 0.01 µg/mL

**Q.** What about the “50% Neutralization MRC-9” value of the same binder?
**A.** ≤ 2 µg/mL

**Q.** With B13 as the binder, how does the “50% Neutralization ARPE” value read?
**A.** ≤ 2 µg/mL

**Q.** What about the “50% Neutralization MRC-9” value of the same binder?
**A.** ≤ 2 µg/mL

**Q.** What does the source list for B14?
**A.** 50% Neutralization ARPE: ≤ 2 µg/mL; 50% Neutralization MRC-9: ≤ 2 µg/mL

Target: T1, hCMV UL130 + UL131A (co-expressed in …)
Assay: cell-based or functional assay
Remark: another data set of the same source

**Q.** B1 was tested. Which “90% Neutralization ARPE” value did it give?
**A.** 0.0015 µg/mL

**Q.** What about the “90% Neutralization MRC-9” value of the same binder?
**A.** > 10 µg/mL

**Q.** Which “90% Neutralization ARPE” value does the source give for B2 here?
**A.** 0.002 µg/mL

**Q.** And the “90% Neutralization MRC-9” value?
**A.** > 10 µg/mL

**Q.** For B3, which “90% Neutralization ARPE” value is on record?
**A.** 0.0025 µg/mL

**Q.** What about the “90% Neutralization MRC-9” value of the same binder?
**A.** > 10 µg/mL

**Q.** For B4, which “90% Neutralization ARPE” value is on record?
**A.** 0.001 µg/mL

**Q.** And the “90% Neutralization MRC-9” value?
**A.** > 10 µg/mL

**Q.** Which “90% Neutralization ARPE” value does the source give for B5 here?
**A.** 0.02 µg/mL

**Q.** What about the “90% Neutralization MRC-9” value of the same binder?
**A.** > 10 µg/mL

Target: T2, hCMV UL128 + UL130 + UL131A …
Assay: cell-based or functional assay
Remark: another data set of the same source

**Q.** What does the source list for B6?
**A.** 90% Neutralization ARPE: 0.003 µg/mL; 90% Neutralization MRC-9: > 10 µg/mL

**Q.** Which “90% Neutralization ARPE” value does the source give for B7 here?
**A.** 0.008 µg/mL

**Q.** What about the “90% Neutralization MRC-9” value of the same binder?
**A.** > 10 µg/mL

**Q.** Which results are given for B8?
**A.** 90% Neutralization ARPE: 0.0025 µg/mL; 90% Neutralization MRC-9: > 10 µg/mL

**Q.** With B9 as the binder, how does the “90% Neutralization ARPE” value read?
**A.** 0.0008 µg/mL

**Q.** What about the “90% Neutralization MRC-9” value of the same binder?
**A.** > 10 µg/mL

**Q.** How did the “90% Neutralization ARPE” value turn out when B10 was run?
**A.** 0.006 µg/mL

**Q.** And the “90% Neutralization MRC-9” value?
**A.** > 10 µg/mL

**Q.** How did the “90% Neutralization ARPE” value turn out when B11 was run?
**A.** 0.0007 µg/mL

**Q.** And the “90% Neutralization MRC-9” value?
**A.** > 10 µg/mL

Target: T3, hCMV gH (expressed in HEK293T cells)
Assay: cell-based or functional assay
Remark: another data set of the same source

**Q.** With B12 as the binder, how does the “90% Neutralization ARPE” value read?
**A.** 0.4 µg/mL

**Q.** And the “90% Neutralization MRC-9” value?
**A.** 1.12 µg/mL

**Q.** With B13 as the binder, how does the “90% Neutralization ARPE” value read?
**A.** 1.2 µg/mL

**Q.** And the “90% Neutralization MRC-9” value?
**A.** 3.5 µg/mL

**Q.** With B14 as the binder, how does the “90% Neutralization ARPE” value read?
**A.** 0.3 µg/mL

**Q.** What about the “90% Neutralization MRC-9” value of the same binder?
**A.** 1 µg/mL
